The record followed here is patent US12077609B2, “Variable lymphocyte receptors that target the brain extracellular matrix and methods of use” (Wisconsin Alumni Research Foundation, priority 2018, dated 2024).

Test [1] concerns the target bEnd.3 ECM. As to the kind of experiment: Affinity measurement of purified VLR on bEnd.3 ECM (ELISA, one-site equilibrium binding model). Further details: species or system mouse. The conditions noted are these: three replicates, monomeric equilibrium binding model; read-out: Monomeric dissociation constant (Kd) for binding to bEnd.3 ECM. The method, then: To characterize VLR affinity for bEnd.3 ECM, dilutions of purified VLR were incubated with ECM. P1C10 VLR was diluted using a sixfold dilution scheme from 10 μM to 0.21 nM and then incubated with bEnd.3 ECM. Wells were washed five times with PBS+0.05% Tween 20 and then inubcated with anti-myc 9E10, 1:750, (BioLegend) and goat anti-mouse IgG modified with HRP. Wells were washed seven times with PBS+0.05% Tween 20 and then incubated with TMB substrate. Reaction was stopped after 15 min by acidification with 1 M HCl. Absorbance at 450 nm was quantified, and data were fit to a one-site equilibrium binding model to determine Kd as previously described (43). The amino acid sequence for VLR P1C10 is […]
A general note: In an ELISA, binding on a coated surface is turned into a signal by an enzyme label.

In another test the test system is U87 cells. Nature of the test: In vitro U87 cytotoxicity assay on bEnd.3 ECM (CellTiter-Glo). The class given is cell-based, human. To be noted: VLR-conjugated doxorubicin-loaded liposomes bound to bEnd.3 ECM, 2 h incubation, unbound washed, 72 hours culture; read-out: EC50, U87 cell viability as a function of doxorubicin concentration. The source says: EC50 calculations were made using GraphPad software suite. […] Data are presented as mean pixel intensity±SD.
On the technique in general: ATP-based viability assays read luminescence as a measure of living cells.

The subject of test [2] is bEnd.3 ECM. As to the kind of experiment: ELISA-based screen of comparative VLR binding to bEnd.3 and 3T3 ECM. Also noted: species or system mouse. The conditions noted are these: VLR reduced off yeast surface; anti-c-myc detection. The source says: Brain ECM-binding VLRs were identified by mining a yeast surface display library of VLRs. The library was generated from the VLR repertoire of lamprey immunized with mechanically isolated murine brain microvessel plasma membrane preparations that contained associated brain ECM (20). The library was first enriched for ECM binders via two rounds of biopanning on decellularized ECM generated by cultured mouse brain endothelial cells (bEnd.3 cell line). Next, we sought to identify ECM-binding clones that preferentially bound bEnd.3 ECM compared to control mouse fibroblast ECM (3T3 cell line). For this analysis, we picked individual yeast clones into 96-well plates and then expanded and induced them for VLR display. To enable moderate throughput analysis of the clones and avoid cumbersome subcloning of many VLR clones, we removed the VLRs directly from yeast surface via reduction. After removal, we evaluated the comparative binding of VLRs to bEnd.3 and 3T3 ECM via ELISA screening (FIG. 1A). […]
The VLR YSD library underwent two rounds of biopanning against bEnd.3 ECM to enrich for brain ECM-binding clones as previously described (20, 42). […] VLR binding was detected by incubation with one-step 3,3′,5,5′-tetramethylbenzidine (TMB) substrate for 15 to 30 min to develop signal. The reaction was stopped via acidification with 1 M HCl and quantified using absorbance signal at 450 nm. […]

The test system of test [3] is bEnd.3 ECM. As to the kind of experiment: Biopanning of individual VLR-displaying yeast clones onto bEnd.3 and 3T3 ECM, bright-field microscopy. The format is binding, mouse. To be noted: yeast-displayed VLR, qualitative. The method, then: FIGS. 1A-1D. Identification of VLRs that bind brain ECM. (A) A yeast surface display VLR library underwent two rounds of biopanning to enrich for clones that bind bEnd.3 ECM. Next, individual clones were grown, induced and screened for comparative binding to bEnd.3 and 3T3 ECM. VLRs were released from the yeast surface using reducing agent and VLR binding to ECM was measured by probing the anti-c-myc epitope tag in an ELISA format. (B) Fold-changes in ECM binding. The ratio of bEnd.3 ECM/3T3 ECM ELISA signals is shown for 285 VLR clones. Lead clones P3A8 and P1C10 are noted. (C) Preferential binding to bEnd.3 ECM was evaluated for selected clones by biopanning individual clones onto bEnd.3 and 3T3 ECM. Yeast binding was qualitatively analyzed by bright field microscopy. Scale bars=100 μm. (D) VLRs were reduced off the yeast surface and used in labeling murine brain sections and detected via an anti-c-myc epitope tag antibody (green). Microvessels (magenta) were labeled with […] lectin, and cell nuclei (blue) were visualized with Hoechst 33342 stain. Scale bars=20 μm.
Brain ECM-binding VLRs were identified by mining a yeast surface display library of VLRs. […] After removal, we evaluated the comparative binding of VLRs to bEnd.3 and 3T3 ECM via ELISA screening (FIG. 1A). […]

B1: P1C10: Lamprey variable lymphocyte receptor clone binding brain ECM, SEQ ID NO:1 (protein)
chain: ACPSQCSCDQTTVKCHSRRLTSVPAGIPTTTKILRLYSNQITKLEPGVFDHLVNLEKLYISWNQLSALPVGVFDKLTKLTHLSLGYNQLKSVPRGAFDNLKSLTHIWLLNNPWDCECSDILYLKNWIVQHASIVNLQGHGGVDNVKCSGTNTPVRAVTEASTSPSKCP
modifications: Synthetic- VLR clone P1C10
One may read the Kd as the constant that tells how readily two partners part at equilibrium. Turning to B1, at bEnd.3 ECM [1], the Kd came to 48.4 ± 6.05 nM. Also, the EC50 in the test with U87 cells is 199 ± 1.7 nM. Besides, in the test with bEnd.3 ECM [2], the “ELISA fold change (ratio of bEnd.3 ECM/3T3 ECM ELISA signals)” value amounted to 4.2 fold. The “Yeast clone binding to bEnd.3 ECM compared to 3T3 ECM” value in the test on bEnd.3 ECM [3] is “bound selectively to bEnd.3 ECM compared to 3T3 ECM”.
